The values below come from patent publication US20240156863A1 (MorphoSys, published 2024).

The target in the assay is T1, Human CD19 (human, UniProt P15391 20-556).
T1 construct: Endogenous CD19 on the CD19+ cell lines Jeko (JeKo-1), Nalm-6 and Ly7; also called B-lymphocyte antigen CD19; B4
T1 sequence: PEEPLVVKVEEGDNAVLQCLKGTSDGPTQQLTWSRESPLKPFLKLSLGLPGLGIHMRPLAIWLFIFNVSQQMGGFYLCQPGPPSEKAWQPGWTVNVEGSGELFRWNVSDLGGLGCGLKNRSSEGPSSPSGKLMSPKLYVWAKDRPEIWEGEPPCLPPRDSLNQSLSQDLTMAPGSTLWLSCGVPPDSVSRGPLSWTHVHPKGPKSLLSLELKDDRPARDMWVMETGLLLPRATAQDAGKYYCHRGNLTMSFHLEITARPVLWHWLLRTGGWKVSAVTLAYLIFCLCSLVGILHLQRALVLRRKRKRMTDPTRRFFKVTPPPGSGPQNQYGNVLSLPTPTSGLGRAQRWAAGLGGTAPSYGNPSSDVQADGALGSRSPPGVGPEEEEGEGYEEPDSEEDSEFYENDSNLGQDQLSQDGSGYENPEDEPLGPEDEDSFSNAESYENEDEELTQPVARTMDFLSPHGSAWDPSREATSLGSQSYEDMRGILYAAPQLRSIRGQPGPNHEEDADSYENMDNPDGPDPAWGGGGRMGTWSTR
Description: Pre-incubation of CD19+ Nalm-6 or Jeko cells, then flow cytometry with FMC63 as competitor. The method, then:
FIG. 2: Clone FMC63 (CD19 binding domain in CART19) and tafasitamab compete for CD19 binding. After 4 hours of treatment of Jeko cells with 2 or 0.5 mg/mL of tafasitamab, flow cytometry using the FMC63 anti-CD19 antibody was performed.
It was studied, whether the observed CART19 activity may be influenced by tafasitamab in case of a direct CD19 binding competition between tafasitamab and the CAR. To first test for such binding competition, the CD19+ cell lines Nalm-6 or Jeko were incubated with 2 or 0.5 mg/mL tafasitamab, to saturate the receptors. […] To investigate for any potential impact of such binding competition on CART19 cell effector functions, tafasitamab was incubated with target cells (CD19+ cell lines Jeko, Ly7 or Nalm-6) at increasing concentrations and then CART19 cells were added at different effector: target ratios (0.1:1 to 10:1), without other effector cells to the cell culture.

B1: tafasitamab (antibody, human IgG1, kappa, V domains shown)
VH: EVQLVESGGGLVKPGGSLKLSCAASGYTFTSYVMHWVRQAPGKGLEWIGYINPYNDGTKYNEKFQGRVTISSDKSISTAYMELSSLRSEDTAMYYCARGTYYYGTRVFDYWGQGTLVTVSS
VL: DIVMTQSPATLSLSPGERATLSCRSSKSLQNVNGNTYLYWFQQKPGQSPQLLIYRMSNLNSGVPDRFSGSGSGTEFTLTISSLEPEDFAVYYCMQHLEYPITFGAGTKLEIKR
notes: Fc-enhanced, humanized monoclonal anti-CD19 antibody; also called MOR00208; MOR208
As for B1, the binding result is on record as “binds”.
